In the supplement of paper PMC10126150:
± gives the standard deviation of the averaged measurements.

Test system: ATP
Assay: switch fluorescence ratio, 500 uM ATP over buffer (Cy3 cluster intensity, sum of 5 cycles each) (fold (ratio)); higher = stronger signal-on switching upon ATP binding; sequences stand for … in TCGTCGGCAGCGTCAGATGTGTATAAGAGACAGTTTTTTTTTTTTTTTTTTTTTTTTT…TC
Conditions: aptamer strand: ATP DNA aptamer (quencher-CACCTGGGGGAGTATTGCGGAGGAAGG + anchor), 100 nM annealed; ATP concentration: 500 uM
In short: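 Values give the fluorescence ratio for each switch-domain sequence, averaged from per-cluster ratios of summed target-cycle to summed buffer-cycle Cy3 intensity. The Cy3-labelled switching-strand clusters sat on a modified Illumina MiSeq flow-cell, were annealed to 100 nM quencher-labelled ATP aptamer, and were imaged in selection buffer, then after 15 min with 500 uM ATP at 22 °C. Five cycles ran with NaOH stripping and re-annealing between them, and clusters outside 100-1000 RFU were excluded.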
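Also: ATP exposure 15 min at 22 °C before imaging.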

Row | Sequence | switch fluorescence ratio
1 | TACGCACGTA | 1.31 ± 0.17
2 | TTGGGCTAGG | 1 ± 0.0054
3 | ATCTGCATGA | 1.01 ± 0.063
4 | AGTGTGGGTT | 0.979 ± 0.0047
5 | GGGGGGGAAG | 1.01 ± 0.087
6 | AAGGGGTCCA | 0.991 ± 0.029
7 | TGACCGTAGA | 1.03 ± 0.028
8 | AATTAATTGG | 0.994 ± 0.012
9 | CGGGTAGGTG | 1.03 ± 0.058
10 | TGAAGAGGAT | 1.09 ± 0.15
11 | TGATGGGGG | 0.981 ± 0.016
12 | AGTTGTACTA | 0.9633 ± 0.0046
13 | CTTTGTCGCT | 1.01 ± 0.029
14 | ATAGGATGAG | 1.022 ± 0.0091
15 | GCAGTATGAG | 0.99 ± 0.021
16 | CGCTGGGTGG | 1.02 ± 0.037
17 | CTGGAAATTT | 1 ± 0.027
18 | CTCGTTCTAT | 1.002 ± 0.0057
19 | GAAGCTTGGT | 0.972 ± 0.041
20 | GGCTTGGGGA | 1.01 ± 0.036
21 | ATGTAAAATT | 0.972 ± 0.038
22 | GTCAATTTGT | 1.02 ± 0.018
23 | TTTGGACGGT | 1.015 ± 0.0099
24 | GAGTTTGAGT | 0.982 ± 0.035
25 | ATTCGGTCGA | 0.976 ± 0.039

Row | Sequence | switch fluorescence ratio
26 | CCGAATAGTT | 1.18 ± 0.14
27 | TTGGATCAAC | 1.04 ± 0.051
28 | TGGGGTTGAC | 0.9697 ± 0.0034
29 | AGACTGACAA | 1.1 ± 0.021
30 | TGGGGGAACT | 0.996 ± 0.019
31 | TTGTATTTGG | 1.02 ± 0.043
32 | GCTGTGGTT | 0.9376 ± 0.00097
33 | ATCGGTCTTT | 0.997 ± 0.084
34 | CGATGGTTGA | 1 ± 0.042
35 | GTTTGTAGTT | 0.968 ± 0.037
36 | AAAAGGCCGG | 1.05 ± 0.14
37 | TGTGGGGGTA | 0.986 ± 0.034
38 | ATGATAGAGA | 1.06 ± 0.021
39 | TTTAAGCAAG | 1.062 ± 0.0077
40 | CGTATTGCGC | 0.971 ± 0.038
41 | TATGGTTATG | 1.008 ± 0.0072
42 | CGTGGGAGGG | 0.99 ± 0.011
43 | AGGGTCGACT | 1.033 ± 0.0095
44 | ATGGGGACGG | 1.013 ± 0.0035
45 | TAGTTGAATT | 0.998 ± 0.014
46 | GGTTTTGGGT | 0.978 ± 0.026
47 | TCGTCCGGCG | 0.96503 ± 0.00055
48 | AGCGCGGCGC | 1.01 ± 0.051
49 | TGGGGGAAGT | 1.01 ± 0.029
50 | TTTTCGGGAA | 1.011 ± 0.0057

Row | Sequence | switch fluorescence ratio
51 | AAATTCTGCG | 0.941 ± 0.0098
52 | CAGCGGAGGT | 1.025 ± 0.0052
53 | CTGCTCTGGG | 1.02 ± 0.017
54 | AGCCATTAGC | 0.992 ± 0.048
55 | CGATTATCGG | 0.999 ± 0.014
56 | GATGTTGCCG | 1.05 ± 0.057
57 | TCGGCTGGGG | 0.991 ± 0.014
58 | TATGCCTCTT | 1.01 ± 0.031
59 | TGCCTTTTTT | 1 ± 0.016
60 | GAAGTATGGT | 1.01 ± 0.031
61 | GATTATGCGG | 0.9849 ± 0.006
62 | CATCAGGGCT | 1.06 ± 0.051
63 | TCGGGCGATG | 0.983 ± 0.036
64 | TTCGCATATT | 1.47 ± 0.26
65 | GATGTAGGTA | 0.983 ± 0.038
66 | GGTTGGGTG | 1.03 ± 0.013
67 | GATACAGTAA | 1.06 ± 0.017
68 | ATGGAAAGCA | 1.05 ± 0.029
69 | TAAGGCGGTA | 0.963 ± 0.035
70 | GTTTAAGGGC | 0.988 ± 0.032
71 | CAAGTCTGG | 0.985 ± 0.032
72 | ATATTGGTAC | 1.034 ± 0.0013
73 | GAGTAAGCGG | 1.01 ± 0.048
74 | ATAGAGGGGG | 0.996 ± 0.03
75 | GGCAGAAAAT | 1.01 ± 0.032

Row | Sequence | switch fluorescence ratio
76 | TCTGTATCTA | 0.993 ± 0.021
77 | AAATGAGCTT | 0.986 ± 0.029
78 | TTGTAGGCGA | 1.09 ± 0.0026
79 | AGTAGGACGC | 1.02 ± 0.018
80 | ACTATTGGTA | 1.03 ± 0.046
81 | AAAAAATTGT | 0.999 ± 0.019
82 | CGGTGTGAGG | 0.988 ± 0.031
83 | TTCCTAATTT | 1.63 ± 0.94
84 | GGCCGTTTGA | 1.02 ± 0.048
85 | AAGGTCGTCG | 0.9834 ± 0.0076
86 | AACGTTGCCC | 1.01 ± 0.025
87 | GAATACTTGG | 1.04 ± 0.054
88 | GGGGTTCGTA | 0.966 ± 0.028
89 | TGGTAAATCG | 1.03 ± 0.038
90 | CGGCGGCGGG | 1.03 ± 0.015
91 | CTGGGGGATA | 1.02 ± 0.036
92 | GGATCCGAGC | 1.03 ± 0.033
93 | TGATTGGTTC | 0.9788 ± 0.0029
94 | CGCAGTTGGA | 1.03 ± 0.039
95 | CGCATAAATA | 1.16 ± 0.034
96 | AAGCTAGTTT | 1 ± 0.013
97 | TAATAGAATT | 1 ± 0.014
98 | CTATATTTTT | 1.01 ± 0.025
99 | TATGAGTTGC | 1.03 ± 0.011
100 | ATACGCTGTT | 0.9875 ± 0.0082

Row | Sequence | switch fluorescence ratio
101 | CGGGTAAGTC | 0.995 ± 0.01
102 | TAAAGTTATT | 1.0106 ± 0.00041
103 | ACCGGCGTTT | 1.05 ± 0.051
104 | TATGAGGGTT | 1 ± 0.038
105 | ATAAGGCGGG | 0.971 ± 0.031
106 | GCAAGAATTT | 0.982 ± 0.046
107 | AATTGAAGTG | 1.022 ± 0.01
108 | ATATTAGTAT | 1.01 ± 0.038
109 | AATTGGGACA | 1 ± 0.01
110 | GCTTTGATTT | 1.02 ± 0.022
111 | ACTATATGAT | 1.08 ± 0.043
112 | TTGATGGGTG | 0.995 ± 0.015
113 | CAGCGAGGAA | 1.014 ± 0.0091
114 | GTGGGGCACG | 0.9933 ± 0.0095
115 | TGGGGCGACT | 0.991 ± 0.021
116 | GGGGTAATTT | 1.02 ± 0.035
117 | ATGGGGGGGC | 1.01 ± 0.022
118 | TTAACTGGTA | 0.9904 ± 0.0016
119 | TTCTAACTCA | 1.02 ± 0.029
120 | TTACTTTTGC | 1.01 ± 0.065
121 | TAGGTTATTA | 0.9988 ± 0.0097
122 | GGGTTGTCGA | 0.952 ± 0.011
123 | TATTGGTTCG | 1.03 ± 0.027
124 | TGAGTATTTA | 0.993 ± 0.057
125 | TTATGCTATT | 1 ± 0.022

Row | Sequence | switch fluorescence ratio
126 | TAGACTTTAT | 1.02 ± 0.029
127 | TCGAAGCCTA | 1.17 ± 0.02
128 | GGGGAAGGTA | 0.978 ± 0.019
129 | CGCTATGTTT | 1.02 ± 0.019
130 | TCTGCTAAGG | 0.98406 ± 0.00079
131 | AGGGATGGGA | 1.01 ± 0.019
132 | GGATTCAAAG | 0.993 ± 0.015
133 | TTATTCGAGA | 1.02 ± 0.034
134 | CTAATATCAC | 1.02 ± 0.012
135 | TCTTAGACAT | 0.9646 ± 0.0028
136 | CTTTTTTGAT | 0.9831 ± 0.0061
137 | GGAGCAAAGG | 2.63 ± 0.1
138 | TTCATTCCGA | 1.29 ± 0.095
139 | CAAATAGTGG | 0.943 ± 0.034
140 | CGAGGGGGAT | 1.19 ± 0.27
141 | ACGCTTGCTA | 1.02 ± 0.013
142 | TTCTAGCTTG | 1.01 ± 0.047
143 | CTGGCGAGGG | 1.01 ± 0.026
144 | GATATTATTT | 0.998 ± 0.024
145 | TTTGACTGAG | 0.997 ± 0.023
146 | CTCGGACGGG | 0.995 ± 0.046
147 | TGGCACAGTG | 0.996 ± 0.019
148 | GATTGATGTT | 1.013 ± 0.009
149 | TTAAGTGCTC | 0.983 ± 0.031
150 | CGGGCGCTGA | 0.9837 ± 0.004

Row | Sequence | switch fluorescence ratio
151 | TGACTCGGGC | 0.993 ± 0.022
152 | AATATCTGTG | 1.01 ± 0.016
153 | TCTGTCAAGG | 1 ± 0.034
154 | TAGTAGAGT | 0.9637 ± 0.0076
155 | TTTTTATTAT | 1.01 ± 0.036
156 | CGGGTTGGGT | 1.01 ± 0.049
157 | ATATGGAGCA | 1.03 ± 0.046
158 | TGGGATCCGC | 1.03 ± 0.056
159 | TTTTATAATT | 1.04 ± 0.089
160 | GATGGAGGAT | 1.01 ± 0.021
161 | GGGGGCGTTT | 1.01 ± 0.045
162 | AAACTTTTTT | 0.9566 ± 0.0049
163 | TATGTTTGCC | 1.02 ± 0.047
164 | CGGACATTCA | 1.041 ± 0.0082
165 | GGTATATTAA | 1.02 ± 0.023
166 | GACATATGGG | 0.967 ± 0.035
167 | ACCTTTTAAG | 1.23 ± 0.3
168 | TCACATTTTA | 0.995 ± 0.04
169 | CGGATAGGTT | 1.01 ± 0.017
170 | GGAAAGGGAT | 0.991 ± 0.012
171 | TTATTCGTGT | 1.01 ± 0.04
172 | ATGTTCACGG | 1.01 ± 0.033
173 | TATATGGCAT | 1.05 ± 0.085
174 | TTATTTAGCT | 1.01 ± 0.017
175 | AACGACGATC | 1.11 ± 0.046

Row | Sequence | switch fluorescence ratio
176 | TAGTGTATTA | 1.01 ± 0.018
177 | TTGGTGTTAG | 0.973 ± 0.031
178 | TCGGGTTGG | 1.03 ± 0.02
179 | ATATGATTAG | 0.993 ± 0.021
180 | CAGTGGGTCT | 0.992 ± 0.017
181 | AGTCCTGGCG | 1.07 ± 0.023
182 | TTCAATGAAA | 1 ± 0.054
183 | GTTTTTCCAG | 0.9844 ± 0.0061
184 | CTTGAAATTC | 1.04 ± 0.017
185 | CGACGGGCGG | 1.02 ± 0.032
186 | TGTTTGACAT | 0.98 ± 0.02
187 | AAGATAGTGT | 0.9936 ± 0.0057
188 | GCGAGGTGGG | 0.999 ± 0.049
189 | TCGAGGATGT | 0.976 ± 0.019
190 | GTATGCGTTG | 0.989 ± 0.056
191 | TGGTGATGGG | 0.9922 ± 0.0093
192 | CAGAGAAAC | 1.1 ± 0.12
193 | TATAGTATTT | 0.984 ± 0.015
194 | TTACAAGTTT | 1.14 ± 0.19
195 | AGCGTCTGGG | 1.0291 ± 0.00058
196 | ATTGATTCAA | 0.996 ± 0.02
197 | AAATGTTCTT | 0.986 ± 0.031
198 | TTGTAAACGA | 1.01 ± 0.042
199 | TCTGCTAGTT | 1.02 ± 0.021
200 | TGAACATTTT | 1.07 ± 0.079
